Results as given in article PMC5753033, “WH2 and proline‐rich domains of WASP‐family proteins collaborate to accelerate actin filament elongation” (The EMBO Journal, 2017).

Molecular target: Atto540Q-labeled actin monomers (Acanthamoeba castellanii), Latrunculin B-stabilized (Acanthamoeba castellanii, Atto540Q-NHS at reactive lysine residues)
Assay: FRET or BRET; 7.5 nM Alexa488-labeled WAVE1 variant titrated with LatB-stabilized Atto540Q-actin; donor quenching; room temperature; 20 mM HEPES pH 7.0, 100 mM KCl, 1.5 mM MgCl2, 1 mM EGTA, 1 mM ATP; single site binding curve
Details: both partners purified

B1: Alexa488-labeled WAVE1 P_CA (WH2-delete construct) (domain or fragment)
chain: RPHEPPPPPPMHGAGDAKPIPTSISSATGLIENRPQSPATGRTPVFVSPTPPPPPPPLPSALSTSSLRASMTSTPPPPVPPPPPPPATALQAPAVPPPPAPLQIAPGVLHPAPPPIAPPLVQPSPPVARAAPVSETVPVHPLPQGEVQGLPPPPPPPPLPPPGIRPSSPVTVTALAHPPSGLHPTPSTAPGPHVPLMPPSPPSQVIPASEPKRHPSCLPVISDEEQREQEAKHERIENDVATILSRRIAVEYSDSEDDSEFDEVDWLE
modifications: Alexa488-maleimide on Cys490
- Kd: 425 nM
